Data from paper PMC4890606 (Molecular cell, 2016).

How the values were obtained:
[1] = target: T1, Mit1 C-terminal domain (1156–1417) (S. pombe, UniProt Q9P793 1156-1417); assay: pull-down
T1 sequence (looked up): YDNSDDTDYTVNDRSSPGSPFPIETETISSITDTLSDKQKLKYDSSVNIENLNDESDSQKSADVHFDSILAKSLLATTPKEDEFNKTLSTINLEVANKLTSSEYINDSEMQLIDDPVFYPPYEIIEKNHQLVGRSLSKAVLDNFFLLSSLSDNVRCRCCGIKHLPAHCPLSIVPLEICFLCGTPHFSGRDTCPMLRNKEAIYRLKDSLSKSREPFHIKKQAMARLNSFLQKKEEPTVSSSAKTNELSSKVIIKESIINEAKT

[2] = target: the molecule itself

B1: Clr1 region between residues 357–500 (domain or fragment, S. pombe, UniProt O74808 357-500, looked up)
chain: PFLTPDNIASSILYSTASFSRSKPDRPRLNLSLELKLMQNELNKGQLKKQFKGDLRNLADWNNLSLVSSKFPSLPITNLRPDGSFLKHRRFNEEIAYNRQTLEKAIKQLDLSPDKVIQLREQNGVAVNGRVCYPTRNKHSEISA
Does B1 bind [1]?
Result: binds

B2: Clr3 (aa31–687) (enzyme, S. pombe, UniProt P56523 31-687, looked up)
chain: TNNKPMSGSENTLNNESHEMSQILKKSGLCYDPRMRFHATLSEVDDHPEDPRRVLRVFEAIKKAGYVSNVPSPSDVFLRIPAREATLEELLQVHSQEMYDRVTNTEKMSHEDLANLEKISDSLYYNNESAFCARLACGSAIETCTAVVTGQVKNAFAVVRPPGHHAEPHKPGGFCLFNNVSVTARSMLQRFPDKIKRVLIVDWDIHHGNGTQMAFYDDPNVLYVSLHRYENGRFYPGTNYGCAENCGEGPGLGRTVNIPWSCAGMGDGDYIYAFQRVVMPVAYEFDPDLVIVSCGFDAAAGDHIGQFLLTPAAYAHMTQMLMGLADGKVFISLEGGYNLDSISTSALAVAQSLLGIPPGRLHTTYACPQAVATINHVTKIQSQYWRCMRPKHFDANPKDAHVDRLHDVIRTYQAKKLFEDWKITNMPILRDSVSNVFNNQVLCSSNFFQKDNLLVIVHESPRVLGNGTSETNVLNLNDSLLVDPVSLYVEWAMQQDWGLIDINIPEVVTDGENAPVDILSEVKELCLYVWDNYVELSISKNIFFIGGGKAVHGLVNLASSRNVSDRVKCMVNFLGTEPLVGLKTASEEDLPTWYYRHSLVFVSSSNECWKKAKRAKRRYGRLMQSEHTETSDMMEQHYRAVTQYLLHLLQKARPTSQ
For B2, which “stoichiometry N” value [2] is on record?
Its value is 2.
